Laboratory results as given in patent US20150344570A1 (published 2015).

How the values were obtained:
[1] = molecular target: T1, FcγRIIa R (human, UniProt P12318 34-217); assay: SPR (Biacore); He/Con_2aR divided by He/Con_2b (FcγRIIa R over FcγRIIb)
T1 construct: extracellular domain; also called FcgRIIa R type; 2aR
T1 sequence (looked up): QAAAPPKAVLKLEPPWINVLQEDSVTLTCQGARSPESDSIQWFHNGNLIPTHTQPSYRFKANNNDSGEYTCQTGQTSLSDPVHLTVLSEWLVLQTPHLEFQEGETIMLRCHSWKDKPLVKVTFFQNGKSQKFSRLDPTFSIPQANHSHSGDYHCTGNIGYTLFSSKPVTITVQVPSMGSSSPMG

[2] = molecular target: T2, FcγRIIb (human, UniProt P31994 43-217); assay: SPR (Biacore), captured antibody, FcγR as analyte; relative binding, control GpH7-A5/GpH7-B3/GpL16-k0 = 100
T2 construct: extracellular domain; also called FcgRIIb; 2b
T2 sequence (looked up): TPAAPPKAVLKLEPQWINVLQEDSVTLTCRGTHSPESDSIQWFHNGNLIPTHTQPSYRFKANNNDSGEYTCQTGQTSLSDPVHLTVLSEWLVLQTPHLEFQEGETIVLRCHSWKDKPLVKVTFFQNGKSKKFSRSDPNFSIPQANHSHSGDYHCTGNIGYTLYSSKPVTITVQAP
Protocol: (§1) The heterodimerized antibodies He Abs in which one of the H chains was introduced with an alteration were assayed for their binding activities to each activating FcγR and inhibitory FcγR according to the method described in Example 4. […] The activating FcγRs in FIGS. 26, 27, 28, and 29 are FcγRIa, FcγRIIa (R), FcγRIIa (H), and FcγRIIIa, respectively.
(§2) Analysis of interaction between objective antibody and the FcγR was carried out using Biacore T100 (GE Healthcare). HBS-EP+ (GE Healthcare) was used as the running buffer, and the measurement temperature was set to 25° C. Chips produced by immobilizing the antigen peptide by the amine coupling method to a Series S Sencor Chip CM5 (GE Healthcare), or alternatively, chips produced by allowing preliminarily biotinylated antigen peptides to interact with and immobilize onto a Series S Sensor Chip SA (certified) (GE Healthcare) were used. Antibodies of interest were captured onto an antigen peptide-immobilized chip, and allowed to interact to each FcγR diluted with running buffer. To regenerate and repeatedly use the chip, the antibodies captured on the chip were washed off by reacting 10 mM glycine-HCl, pH 1.5.

[3] = molecular target: T1, FcγRIIa R; assay: as above
Protocol: as §1, §2

Binder | He_2aR/2b (IIaR/IIb) [1] [ratio] | He/Con_2b [2] [control = 100] | He/Con_2aR [3] [control = 100]
GpH7-A5/GpH7-B3 variant E269_06M/GpL16-k0 (antibody, human IgG1, kappa, heterodimerized anti-glypican-3 IgG1; alteration in one H chain only; also called He Ab) heavy 1: not shown heavy 2: not shown light: DIVMTQSPLSLPVTPGEPASISCQASESLVHSNRNTYLHWYLQKPGQSPQLLIYKVSNRFSGVPDRFSGSGSGTDFTLKISRVEAEDVGVYYCSQNTHVPPTFGQGTKVEIERTVAAPSVFIFPPSDEQLKSGTASVVCLLNNFYPREAKVQWKVDNALQSGNSQESVTEQDSKDSTYSLSSTLTLSKADYEKHKVYACEVTHQGLSSPVTKSFNRGEC | 1.32 | 46.7 | 61.7
GpH7-A5/GpH7-B3 variant E269_16H/GpL16-k0 (antibody, human IgG1, kappa, heterodimerized anti-glypican-3 IgG1; alteration in one H chain only; also called He Ab) heavy 1: not shown heavy 2: not shown light: DIVMTQSPLSLPVTPGEPASISCQASESLVHSNRNTYLHWYLQKPGQSPQLLIYKVSNRFSGVPDRFSGSGSGTDFTLKISRVEAEDVGVYYCSQNTHVPPTFGQGTKVEIERTVAAPSVFIFPPSDEQLKSGTASVVCLLNNFYPREAKVQWKVDNALQSGNSQESVTEQDSKDSTYSLSSTLTLSKADYEKHKVYACEVTHQGLSSPVTKSFNRGEC | 1.32 | 38.5 | 50.7
GpH7-A5/GpH7-B3 variant E269_08L/GpL16-k0 (antibody, human IgG1, kappa, heterodimerized anti-glypican-3 IgG1; alteration in one H chain only; also called He Ab) heavy 1: not shown heavy 2: not shown light: DIVMTQSPLSLPVTPGEPASISCQASESLVHSNRNTYLHWYLQKPGQSPQLLIYKVSNRFSGVPDRFSGSGSGTDFTLKISRVEAEDVGVYYCSQNTHVPPTFGQGTKVEIERTVAAPSVFIFPPSDEQLKSGTASVVCLLNNFYPREAKVQWKVDNALQSGNSQESVTEQDSKDSTYSLSSTLTLSKADYEKHKVYACEVTHQGLSSPVTKSFNRGEC | 1.33 | 42.9 | 57.2
GpH7-A5/GpH7-B3 variant H268_06M/GpL16-k0 (antibody, human IgG1, kappa, heterodimerized anti-glypican-3 IgG1; alteration in one H chain only; also called He Ab) heavy 1: not shown heavy 2: not shown light: DIVMTQSPLSLPVTPGEPASISCQASESLVHSNRNTYLHWYLQKPGQSPQLLIYKVSNRFSGVPDRFSGSGSGTDFTLKISRVEAEDVGVYYCSQNTHVPPTFGQGTKVEIERTVAAPSVFIFPPSDEQLKSGTASVVCLLNNFYPREAKVQWKVDNALQSGNSQESVTEQDSKDSTYSLSSTLTLSKADYEKHKVYACEVTHQGLSSPVTKSFNRGEC | 1.23 | 65.7 | 81
GpH7-A5/GpH7-B3 variant E269_11K/GpL16-k0 (antibody, human IgG1, kappa, heterodimerized anti-glypican-3 IgG1; alteration in one H chain only; also called He Ab) heavy 1: not shown heavy 2: not shown light: DIVMTQSPLSLPVTPGEPASISCQASESLVHSNRNTYLHWYLQKPGQSPQLLIYKVSNRFSGVPDRFSGSGSGTDFTLKISRVEAEDVGVYYCSQNTHVPPTFGQGTKVEIERTVAAPSVFIFPPSDEQLKSGTASVVCLLNNFYPREAKVQWKVDNALQSGNSQESVTEQDSKDSTYSLSSTLTLSKADYEKHKVYACEVTHQGLSSPVTKSFNRGEC | 2.14 | 17.8 | 38.1
GpH7-A5/GpH7-B3 variant E269_07I/GpL16-k0 (antibody, human IgG1, kappa, heterodimerized anti-glypican-3 IgG1; alteration in one H chain only; also called He Ab) heavy 1: not shown heavy 2: not shown light: DIVMTQSPLSLPVTPGEPASISCQASESLVHSNRNTYLHWYLQKPGQSPQLLIYKVSNRFSGVPDRFSGSGSGTDFTLKISRVEAEDVGVYYCSQNTHVPPTFGQGTKVEIERTVAAPSVFIFPPSDEQLKSGTASVVCLLNNFYPREAKVQWKVDNALQSGNSQESVTEQDSKDSTYSLSSTLTLSKADYEKHKVYACEVTHQGLSSPVTKSFNRGEC | 1.34 | 43.9 | 58.8
GpH7-A5/GpH7-B3 variant H268_08L/GpL16-k0 (antibody, human IgG1, kappa, heterodimerized anti-glypican-3 IgG1; alteration in one H chain only; also called He Ab) heavy 1: not shown heavy 2: not shown light: DIVMTQSPLSLPVTPGEPASISCQASESLVHSNRNTYLHWYLQKPGQSPQLLIYKVSNRFSGVPDRFSGSGSGTDFTLKISRVEAEDVGVYYCSQNTHVPPTFGQGTKVEIERTVAAPSVFIFPPSDEQLKSGTASVVCLLNNFYPREAKVQWKVDNALQSGNSQESVTEQDSKDSTYSLSSTLTLSKADYEKHKVYACEVTHQGLSSPVTKSFNRGEC | 1.25 | 67.8 | 85
GpH7-A5/GpH7-B3 variant E269_15Y/GpL16-k0 (antibody, human IgG1, kappa, heterodimerized anti-glypican-3 IgG1; alteration in one H chain only; also called He Ab) heavy 1: not shown heavy 2: not shown light: DIVMTQSPLSLPVTPGEPASISCQASESLVHSNRNTYLHWYLQKPGQSPQLLIYKVSNRFSGVPDRFSGSGSGTDFTLKISRVEAEDVGVYYCSQNTHVPPTFGQGTKVEIERTVAAPSVFIFPPSDEQLKSGTASVVCLLNNFYPREAKVQWKVDNALQSGNSQESVTEQDSKDSTYSLSSTLTLSKADYEKHKVYACEVTHQGLSSPVTKSFNRGEC | 1.29 | 44.7 | 57.6
GpH7-A5/GpH7-B3 variant E269_14T/GpL16-k0 (antibody, human IgG1, kappa, heterodimerized anti-glypican-3 IgG1; alteration in one H chain only; also called He Ab) heavy 1: not shown heavy 2: not shown light: DIVMTQSPLSLPVTPGEPASISCQASESLVHSNRNTYLHWYLQKPGQSPQLLIYKVSNRFSGVPDRFSGSGSGTDFTLKISRVEAEDVGVYYCSQNTHVPPTFGQGTKVEIERTVAAPSVFIFPPSDEQLKSGTASVVCLLNNFYPREAKVQWKVDNALQSGNSQESVTEQDSKDSTYSLSSTLTLSKADYEKHKVYACEVTHQGLSSPVTKSFNRGEC | 1.3 | 50.6 | 66
GpH7-A5/GpH7-B3 variant E269_20W/GpL16-k0 (antibody, human IgG1, kappa, heterodimerized anti-glypican-3 IgG1; alteration in one H chain only; also called He Ab) heavy 1: not shown heavy 2: not shown light: DIVMTQSPLSLPVTPGEPASISCQASESLVHSNRNTYLHWYLQKPGQSPQLLIYKVSNRFSGVPDRFSGSGSGTDFTLKISRVEAEDVGVYYCSQNTHVPPTFGQGTKVEIERTVAAPSVFIFPPSDEQLKSGTASVVCLLNNFYPREAKVQWKVDNALQSGNSQESVTEQDSKDSTYSLSSTLTLSKADYEKHKVYACEVTHQGLSSPVTKSFNRGEC | 1.3 | 42.5 | 55.5
GpH7-A5/GpH7-B3 variant H268_11K/GpL16-k0 (antibody, human IgG1, kappa, heterodimerized anti-glypican-3 IgG1; alteration in one H chain only; also called He Ab) heavy 1: not shown heavy 2: not shown light: DIVMTQSPLSLPVTPGEPASISCQASESLVHSNRNTYLHWYLQKPGQSPQLLIYKVSNRFSGVPDRFSGSGSGTDFTLKISRVEAEDVGVYYCSQNTHVPPTFGQGTKVEIERTVAAPSVFIFPPSDEQLKSGTASVVCLLNNFYPREAKVQWKVDNALQSGNSQESVTEQDSKDSTYSLSSTLTLSKADYEKHKVYACEVTHQGLSSPVTKSFNRGEC | 1.21 | 83 | 100
GpH7-A5/GpH7-B3 variant E269_19Q/GpL16-k0 (antibody, human IgG1, kappa, heterodimerized anti-glypican-3 IgG1; alteration in one H chain only; also called He Ab) heavy 1: not shown heavy 2: not shown light: DIVMTQSPLSLPVTPGEPASISCQASESLVHSNRNTYLHWYLQKPGQSPQLLIYKVSNRFSGVPDRFSGSGSGTDFTLKISRVEAEDVGVYYCSQNTHVPPTFGQGTKVEIERTVAAPSVFIFPPSDEQLKSGTASVVCLLNNFYPREAKVQWKVDNALQSGNSQESVTEQDSKDSTYSLSSTLTLSKADYEKHKVYACEVTHQGLSSPVTKSFNRGEC | 1.31 | 44.3 | 57.8
GpH7-A5/GpH7-B3 variant E269_12R/GpL16-k0 (antibody, human IgG1, kappa, heterodimerized anti-glypican-3 IgG1; alteration in one H chain only; also called He Ab) heavy 1: not shown heavy 2: not shown light: DIVMTQSPLSLPVTPGEPASISCQASESLVHSNRNTYLHWYLQKPGQSPQLLIYKVSNRFSGVPDRFSGSGSGTDFTLKISRVEAEDVGVYYCSQNTHVPPTFGQGTKVEIERTVAAPSVFIFPPSDEQLKSGTASVVCLLNNFYPREAKVQWKVDNALQSGNSQESVTEQDSKDSTYSLSSTLTLSKADYEKHKVYACEVTHQGLSSPVTKSFNRGEC | 1.39 | 25.2 | 35
GpH7-A5/GpH7-B3 variant E269_13S/GpL16-k0 (antibody, human IgG1, kappa, heterodimerized anti-glypican-3 IgG1; alteration in one H chain only; also called He Ab) heavy 1: not shown heavy 2: not shown light: DIVMTQSPLSLPVTPGEPASISCQASESLVHSNRNTYLHWYLQKPGQSPQLLIYKVSNRFSGVPDRFSGSGSGTDFTLKISRVEAEDVGVYYCSQNTHVPPTFGQGTKVEIERTVAAPSVFIFPPSDEQLKSGTASVVCLLNNFYPREAKVQWKVDNALQSGNSQESVTEQDSKDSTYSLSSTLTLSKADYEKHKVYACEVTHQGLSSPVTKSFNRGEC | 1.28 | 47.8 | 61.2
GpH7-A5/GpH7-B3 variant E269_18N/GpL16-k0 (antibody, human IgG1, kappa, heterodimerized anti-glypican-3 IgG1; alteration in one H chain only; also called He Ab) heavy 1: not shown heavy 2: not shown light: DIVMTQSPLSLPVTPGEPASISCQASESLVHSNRNTYLHWYLQKPGQSPQLLIYKVSNRFSGVPDRFSGSGSGTDFTLKISRVEAEDVGVYYCSQNTHVPPTFGQGTKVEIERTVAAPSVFIFPPSDEQLKSGTASVVCLLNNFYPREAKVQWKVDNALQSGNSQESVTEQDSKDSTYSLSSTLTLSKADYEKHKVYACEVTHQGLSSPVTKSFNRGEC | 1.32 | 44.8 | 59.2
